In patent US20200270588A1, “GLUCOSYL TRANSFERASE POLYPEPTIDES AND METHODS OF USE” (Syngenta Participations AG, priority 2017, published 2020):

B1: SEQ ID NO: 58: zmBX8/zmBX9 hybrid polypeptide (protein)
chain: MAASCGGRVVVFPFPFQGHFNPVMRLARALHARGVGITVFHTAGARAPDPADYPADYRFVPVPVEVAPELMASEDIAAIVTALNAACEAPFRDRLSALLSAADGEAGEAGGRVRCVLTDVSWDAVLSAARGLGVPALGVMTASAATFRVYMAYRTLVDKGYLPVREERKDDAVAELPPYRVKDLLRHETCDLEEFADLLGRVIAAARLSSGLIFHTFPFIEAGTLGEIRDDMSVPVYAVAPLNKLVPTATASLHGVVQADRGCLQWLDAQRARSVLYVSFGSMAAMDPHEFVELAWGLADAGRPFVWVVRPNLIRGFESGALPDGVEDRVRGRGVVVSWAPQEEVLAHPAVGGFFTHCGWNSTVEAVSEGVPMICHPRHGDQYGNARYVCHVWKVGTEVAGDQLERGEIKAAIDRLMGGSEEGEGIRKRMNELKIAADKGIDESAGSDLTNLVHLINSY
modifications: Hybrid sequence between Zea mays Bx8 and Bx9 sequences
notes: zmBX8/zmBX9 hybrid polypeptide
B2: SEQ ID NO: 40: I374V, H376C double mutant of Zea mays bx8 (protein)
chain: MAASCGGRVVVFPFPFQGHFNPVMRLARALHARGVGITVFHTAGARAPDPADYPADYRFVPVPVEVAPELMASEDIAAIVTALNAACEAPFRDRLSALLSAADGEAGEAGGRVRCVLTDVSWDAVLSAARGLGVPALGVMTASAATFRVYMAYRTLVDKGYLPVREERKDDAVAELPPYRVKDLLRHETCDLEEFADLLGRVIAAARLSSGLIFHTFPFIEAGTLGEIRDDMSVPVYAVAPLNKLVPAATASLHGEVQADRGCLRWLDAQRARSVLYVSFGSMAAMDPHEFVELAWGLADAGRPFVWVVRPNLIRGFESGALPDGVEDRVRGRGVVVSWAPQEEVLAHPAVGGFFTHCGWNSTVEAVSEGVPMVCCPRHGDQYGNARYVCHVWKVGTEVAGDQLERGEIKAAIDRLMGGSEEGEGIRKRMNELKIAADKGIDESAGSDLTNLVHLINSY
modifications: Mutated Zea mays Bx8 protein sequence

Experiment: LC/MS plate assay of crude E. coli extracts, Zea mays bx8 derivatives, herbicide V
Type: biochemical
Settings: for activity with herbicide V: LC/MS; for activity relative to like-expressed Zea mays bx9 w/t extract: herbicide V, LC/MS peaks, estimate
Procedure: In an alternative method for assaying the various enzymes, the test glucosyl transferase enzyme is reacted with substrates exactly as above except that the assay is stopped by adding an equal volume of acetonitrile. Alternatively 50 or 100 μl samples from assay reactions are added to 500 μl ethyl acetate to stop the reaction. In this case samples are then vortexed and 400 μl of the ethyl acetate partition removed, dried down, and resuspended in 100 μl 80:20 acetonitrile/water. The formation of product gluco side and/or disappearance of substrate test herbicide is then monitored directly by LC/MS. Samples are analyzed by LC-MS using an Agilent 1290 liquid chromatography system and Thermo Q-Exactive mass spectrometer. The chromatography is achieved on a Waters Acquity C18 BEH (50×2.1 mm) 1.7 μm particle size column, using a 6 minute gradient run of Water (0.2% formic acid) and Acetonitrile. The Q-Exactive is operated in positive ionisation electrospray mode, using Full scan-AIF mode, at 35,000 resolution, between 100-800 m/z. All analytes are identified from the full scan data to within at least 5 ppm accuracy of their predicted pseudo-molecular ion [M+H]^+ m/z value. In order to obtain quantitative data standard curves are run using herbicides and herbicide glucosides synthesized as standards. Where these synthetic glucosides were not available the LC/MS assay could only be used to provide relative data.
The glucosyl transferase activities of the mutant bx8-derived polypeptides expressed in these strains were initially assayed versus herbicide V as described in Example 1. The partly purified C-terminally his tagged w/t bx8 enzyme (SEQ ID No: 2) catalyzed glucosyl transfer to herbicide V at a low rate estimated to be less than about 0.002/s at 1 mM herbicide V which, because of a relatively high background of UDP formation in the DMSO (no substrate reagent control) was difficult to quantify using the luminescence assay. Thus further assays were run by LC/MS using which technique the formation of an O-beta glucosyl glucoside of herbicide V could more easily be confirmed but only quantified in a relative sense. Thus the various derivatives of C-terminally his tagged Zea mays bx8 SEQ ID No:2 were cloned and expressed in E. coli BL21 (DE3) as described in Example 1 and assayed in plates as crude extracts, as in Example 2, but monitored by LCMS rather than the luminescence assay.
The different stereoisomer standards chromatographed distinctly on LC (FIGS. 8A-8H). By comparing the LC elution profiles of the standards with the enzyme products at the correct mass it was possible to characterize which polypeptides catalyzed the formation of which O-glucosides. Assay samples and glucoside conjugate standards are run using the identical chromatographic conditions to allow us to identify the conjugate isomer formed in the assay. In short, as would be expected for inverting glucosyl transferases all of the bx enzymes tested produced beta glucoside products (from the alpha-UDP-glucose substrate) from all herbicides tested. But there can be subtle variations between enzymes in stereochemistry of the products made at other chiral centers.

Row | Molecule | activity with herbicide V | activity relative to like-expressed Zea mays bx9 w/t extract | activity relative to like-expressed Zea mays bx9 w/t extract (listed as SEQ ID No 40)
1 | B1 | active |  | 
2 | B2 | detectable activity | about a third to a half | up to about half
